Data on five molecules can be found in patent publication US20210095032A1 (SALUBRIS CHENGDU BIOTECH, published 2021).

Where two headings read alike, the source gives them in different places.

For experiment [1], the target named is T1, biotin-labeled human PD-1 Fc protein (human, biotin-labeled (site not stated)).
T1 construct: also called PD-1-Fc-biotin
Kind of experiment: capture ELISA, antibody captured on plate, biotin-labeled human PD-1 Fc in solution. How it is done:
(§1) Plates were washed 4 times with wash buffer (PBS+0.05% Tween-20, PBST) and then blocked with 200 μl/well blocking buffer (5% w/v non-fatty milk in PBST) for 2 hours at 37° C. […] After a final wash, plates were incubated with 100 μl/well ELISA substrate TMB (Innoreagents). The reaction was stopped in 15 minutes at 25° C. with 50 μl/well 1M H₂SO₄, and the absorbance was read at 450 nm. Data were analyzed using Graphpad Prism software and EC₅₀ values were reported.
(In general: ELISA stands for enzyme-linked immunosorbent assay.)

For experiment [2], the target named is T1, biotin-labeled human PD-1 Fc protein. The description is as above. How it is done:
as §1
The source holds these as a separate data set.

For experiment [3] the target is unchanged. Described as above. The method, then: as §1
This is another data set of the same source.

The target is the same in experiment [4]. Kind of experiment: competition ELISA, antibody + biotin human PD-1-Fc on coated human PD-L1-Fc (competitor PD-L1-Fc). The method, then: (§2) The next day, plates were washed with wash buffer (PBS+0.05% Tween-20, PBST), and blocked with 5% non-fatty milk in PBST for 2 hours at 37° C. Plates were then washed again using wash buffer.
(§3) After incubation at 37° C. for 40 minutes, plates were washed for 4 times using wash buffer. […] Plates were washed again using wash buffer. Finally, TMB was added and the reaction was stopped using 1M H₂SO₄, and the absorbance was read at 450 nm. Data were analyzed using Graphpad Prism software and IC₅₀ values were reported.

The target is the same in experiment [5]. Kind of experiment: capture ELISA, antibody captured on plate, biotin-labeled human PD-1 Fc in solution. The method, then:
as §1
This is another data set of the same source.

The target is the same in experiment [6]. Kind of experiment: competition ELISA, antibody + biotin human PD-1 Fc on coated Nivolumab (competitor Nivolumab). How it is done:
(§4) The next day, plates were washed with wash buffer, and blocked with 5% non-fatty milk in PBST for 2 hours at 37° C. […] Plates were finally washed using wash buffer. TMB was added and the reaction was stopped using 1M H₂SO₄, and the absorbance was read at 450 nm. Data were analyzed using Graphpad Prism software and IC₅₀ values were reported.

The target is the same in experiment [7]. Kind of experiment: capture ELISA, antibody captured on plate, biotin-labeled human PD-1 Fc in solution. The method, then: as §1
This is another data set of the same source.

For experiment [8] the target is unchanged. Described as above. How it is done:
as §1
The source holds these as a separate data set.

Experiment [9] has the same target. Described as above. The method, then: as §1
This is another data set of the same source.

Experiment [10] concerns the target T2, human PD-1 on PD-1 Effector Cell Line (Genscript, GS-J2/PD-1) (human, UniProt Q15116 25-288). Kind of experiment: cell-based or functional assay.
Experiment [11] deals with T1, biotin-labeled human PD-1 Fc protein. Kind of experiment: competition ELISA, antibody + biotin human PD-1 Fc on coated Nivolumab (competitor Nivolumab). How it is done: as §4
The source holds these as a separate data set.

Experiment [12] addresses T3, recombinant human PD-1-his (Sino biological, #10377-H08H) (human, UniProt Q15116 25-167).
T3 construct: Bought protein; also called Human PD-1-his protein; not shown: his tag
Kind of experiment: SPR (Biacore), antibody captured, human PD-1-his flowed. From the text:
(§5) Briefly, goat anti-mouse IgG (GE healthcare, Cat #BR100839, Human Antibody Capture Kit) was covalently linked to a CMS chip (carboxy methyl dextran coated chip) via primary amines, using a standard amine coupling kit (GE healthcare, Pittsburgh, Pa., USA) provided by Biacore. Un-reacted moieties on the biosensor surface were blocked with ethanolamine. […] Then, recombinant human PD-1-his (Sino biological, #10377-H08H) or cynomolgus monkey PD-1-his protein (Acro biosystems, #PD-1-05223) in HBS EP buffer (provided by Biacore) was flowed onto the chip at a flow rate of 30 μL/min. The antigen-antibody association kinetics was followed for 2 minutes and the dissociation kinetics was followed for 10 minutes. The association and dissociation curves were fit to a 1:1 Langmuir binding model using BIA evaluation software.

Experiment [13] has as its target T4, cynomolgus monkey PD-1-his protein (Acro biosystems, #PD-1-05223) (cynomolgus monkey, UniProt B0LAJ3 25-170).
T4 construct: Bought protein; also called Cynomolgus PD-1; Cynomolgus PD1
Kind of experiment: SPR (Biacore T200), antibody captured, PD-1-his flowed, 1:1 Langmuir fit.
Source text: as §5
In general terms: In SPR one partner is held on a chip, and binding of the other changes the refractive index at the surface.

Experiment [14] concerns the target T3, recombinant human PD-1-his (Sino …). The description is as above.
Source text: as §5

The target in experiment [15] is T1, biotin-labeled human PD-1 Fc protein. Kind of experiment: competition ELISA, antibody + biotin human PD-1 Fc on coated Nivolumab (competitor Nivolumab). The method, then: as §4
This is another data set of the same source.

The target of experiment [16] is T4, cynomolgus monkey PD-1-his protein …. Kind of experiment: SPR (Biacore), antibody captured, cynomolgus PD-1-his flowed.
Source text: as §5

Experiment [17] has as its target T1, biotin-labeled human PD-1 Fc protein. Kind of experiment: competition ELISA, antibody + biotin human PD-1-Fc on coated human PD-L1-Fc (competitor PD-L1-Fc). How it is done: as §2, §3
The source holds these as a separate data set.

Experiment [18] shares this target. Kind of experiment: capture ELISA, antibody captured on plate, biotin-labeled human PD-1 Fc in solution. How it is done:
as §1
The source holds these as a separate data set.

Experiment [19] addresses T2, human PD-1 on PD-1 Effector Cell Line …. Kind of experiment: cell-based or functional assay. The source holds these as a separate data set.
Experiment [20] has the same target. Kind of experiment: cell-based or functional assay. The source holds these as a separate data set.
Experiment [21] has as its target T1, biotin-labeled human PD-1 Fc protein. Kind of experiment: competition ELISA, antibody + biotin human PD-1-Fc on coated human PD-L1-Fc (competitor PD-L1-Fc). How it is done:
as §2, §3
The source holds these as a separate data set.

Experiment [22] has the same target. Kind of experiment: capture ELISA.

B1: Nivolumab (OPDIVO®) (antibody, V domains shown)
VH: QVQLVESGGGVVQPGRSLRLDCKASGITFSNSGMHWVRQAPGKGLEWVAVIWYDGSKRYYADSVKGRFTISRDNSKNTLFLQMNSLRAEDTAVYYCATNDDYWGQGTLVTVSS
VL: EIVLTQSPATLSLSPGERATLSCRASQSVSSYLAWYQQKPGQAPRLLIYDASNRATGIPARFSGSGSGTDFTLTISSLEPEDFAVYYCQQSSNWPRTFGQGTKVEIK
In general, EC50 refers to the concentration at which the effect is half-maximal. As a reminder, the IC50 is the concentration at which inhibition is half-maximal. B1: the EC50 in experiment [1] was 0.351 ng/mL; in experiment [2], 1.37 ng/mL; in experiment [3] it was 0.27 ng/mL; in [5], 0.45 nM; in [7], 0.365 ng/mL; in experiment [8], 0.21 nM. Moreover, the EC50 in [9] is 0.268 ng/mL. Also, the IC50 in experiment [4] was 0.42 nM; in experiment [6], 3.79 nM.

B2: mouse anti-PD-1 monoclonal antibody D2A4 (antibody, V domains shown)
VH: EVKLVESGGGLVKPGGSLKLSCAASGFTFSSYTMSWVRQTPAKRLEWVATISGGGSNTYYPDSVKGRFTISRDNARNTLYLQMSSLRSEDTAMYYCARQAFYSNYWYFDVWGAGTTVTVSS
VL: DIQMTQSPASQSASLGESVTITCLASQTIGTWLAWYQQTPGKSPQLLIYAATSLADGVPSRFSGSGSGTKFSFKISSLQAEDFASYYCQQVSSIPWTFGGGTKLEIR
notes: Mouse antibody purified from a hybridoma; also called Mouse D2A4; mouse D2A4
As a reminder, the Kd is a measure of binding affinity in units of concentration. One may read the koff as the first-order rate constant of dissociation. For orientation: kon means the second-order rate constant of association. As for B2, the EC50 was 0.281 ng/mL in experiment [1], 0.13 nM in [5], 0.13 nM in experiment [18] and 0.19 nM in experiment [8]. In experiment [10], the “Cell-based functional reporter assay (IC50, nM)” value was determined as 6.18 nM. Also, the IC50 in experiment [11] came out at 0.33 nM; in experiment [4], 1.51 nM; in experiment [15] it was 0.33 nM; in [17] it was 1.51 nM; in experiment [6] it was 2.22 nM; in experiment [21], 0.17 nM. The Kd was 2.55 nM in experiment [12], 6.57 nM in experiment [13], 2.55 nM in experiment [14] and 6.57 nM in experiment [16]. Moreover, the koff in experiment [13] is 0.000793 s⁻¹; in [14], 0.000401 s⁻¹. Besides, the figures for the kon in [13] and in [14] were 121000 M⁻¹ s⁻¹ and 157000 M⁻¹ s⁻¹, respectively. Further, the “Cell-based functional assay (EC50, nM)” value in [19] turned out to be 6.18 nM. In addition, the “Reporter Activation (EC50, nM), human PD-1 cell (NFAT-luc)/human PD-L1 cell” value in experiment [20] stood at 8.1 nM.

B3: chimeric D2A4 antibody (antibody, human IgG1, kappa, V domains shown)
VH: EVKLVESGGGLVKPGGSLKLSCAASGFTFSSYTMSWVRQTPAKRLEWVATISGGGSNTYYPDSVKGRFTISRDNARNTLYLQMSSLRSEDTAMYYCARQAFYSNYWYFDVWGAGTTVTVSS
VL: DIQMTQSPASQSASLGESVTITCLASQTIGTWLAWYQQTPGKSPQLLIYAATSLADGVPSRFSGSGSGTKFSFKISSLQAEDFASYYCQQVSSIPWTFGGGTKLEIRR
notes: Mouse variable domains cloned in frame to human IgG1 and kappa constant regions; also called chD2A4; ChD2A4
In the case of B3, the EC50 in experiment [1] is 0.681 ng/mL; in experiment [5] it was 0.24 nM; in [18], 0.24 nM; in experiment [9], 0.773 ng/mL. Further, the “Cell-based functional reporter assay (IC50, nM)” value in [10] came out at 9.46 nM. In addition, the half-maximal inhibitory concentration (IC50) in experiment [11] is 0.35 nM; in [4] it was 1.71 nM; in experiment [15], 0.35 nM; in experiment [17], 1.71 nM. The “Cell-based functional assay (EC50, nM)” value in [19] is 9.46 nM.

B4: huD2H3-V13 (antibody, human IgG1, kappa, V domains shown)
VH: EVQLVQSGAEVKKPGSSVKVSCKSSGYTFTNYWMHWVRQAPGQGLEWIGAIFPRNSETNYNQKFKARATLTADTSTSTAYMELSSLRSEDTAVYFCTRNRYGLDYWGQGTLVTVSS
VL: DIVMTQSPDSLAVSLGERATINCRASESVSLHGTRLMHWYQQKPGQPPKLLIYLGSNLESGVPDRFSGSGSGTDFTLTISSLQAEDVAVYYCQQSIEDPWTFGQGTKLEIKR
notes: Humanized D2H3, human IgG1/kappa; No EC50 is printed for this variant; it appears only in the sentences about the group
B4: the binding result in [22] was “binds”.

B5: mouse anti-PD-1 monoclonal antibody D2H3 (antibody, V domains shown)
VH: EVQLQQSGTVLARPGASVKMSCKSSGYTFTNYWMHWVKQRPGQGLEWIGAIFPRNSETNYNQKFKAKAKLTAVTSASTAYMEVSSLTSEDSAVYFCTRNRYGLDYWGQGTSVTVSS
VL: DIVLTQSPGFLAVSLGQRATISCRASESVSLHGTRLMHWYHQKPGQPPKLLISLGSNLESGVPARFSGSGSETDFTLNIHPVEEEDAATYFCQQSIEDPWTFGGGTKLEIK
notes: Mouse antibody purified from a hybridoma; also called Mouse D2H3; mouse D2H3
On to B5, for which, in experiment [10], the “Cell-based functional reporter assay (IC50, nM)” value was found to be 8.48 nM. The EC50 stood at 0.388 ng/mL in experiment [2]; 0.18 ng/mL in experiment [3]; 0.17 nM in [5]; 0.17 nM in [18]; 0.229 ng/mL in [7]; 0.15 nM in experiment [8]. The IC50 in experiment [11] amounted to 0.21 nM; in experiment [4], 0.89 nM; in experiment [15], 0.21 nM; in experiment [17], 0.89 nM; in [6], 0.76 nM; in experiment [21] it was 0.19 nM. Further, the Kd in experiment [12] was 0.373 nM; in experiment [13], 1.46 nM; in experiment [14], 0.373 nM; in [16], 1.46 nM. The values for the koff in [13] and in experiment [14] were 0.000308 s⁻¹ and 0.000122 s⁻¹, respectively. Besides, the kon in experiment [13] is 211000 M⁻¹ s⁻¹; in [14], 326000 M⁻¹ s⁻¹. For the same molecule, the “Cell-based functional assay (EC50, nM)” value in [19] came to 8.48 nM. The “Reporter Activation (EC50, nM), human PD-1 cell (NFAT-luc)/human PD-L1 cell” value in [20] was 3.02 nM.
